From patent US20150010574A1

Columns and labels:
Assay in all cases: cell-based or functional assay
human IGF-1R (human) = human IGF-1R (human) (UniProt P08069)
human IGF-1 (human) = human IGF-1 (human) (UniProt P05019)
human IGF-2 (human) = human IGF-2 (human) (UniProt P01344)
Sequence of human IGF-2 (human) (P01344 25-91 limits assumed): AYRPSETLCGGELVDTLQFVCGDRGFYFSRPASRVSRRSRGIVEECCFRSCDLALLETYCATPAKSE

Sequence of human IGF-1R (human) (P08069 31-1367): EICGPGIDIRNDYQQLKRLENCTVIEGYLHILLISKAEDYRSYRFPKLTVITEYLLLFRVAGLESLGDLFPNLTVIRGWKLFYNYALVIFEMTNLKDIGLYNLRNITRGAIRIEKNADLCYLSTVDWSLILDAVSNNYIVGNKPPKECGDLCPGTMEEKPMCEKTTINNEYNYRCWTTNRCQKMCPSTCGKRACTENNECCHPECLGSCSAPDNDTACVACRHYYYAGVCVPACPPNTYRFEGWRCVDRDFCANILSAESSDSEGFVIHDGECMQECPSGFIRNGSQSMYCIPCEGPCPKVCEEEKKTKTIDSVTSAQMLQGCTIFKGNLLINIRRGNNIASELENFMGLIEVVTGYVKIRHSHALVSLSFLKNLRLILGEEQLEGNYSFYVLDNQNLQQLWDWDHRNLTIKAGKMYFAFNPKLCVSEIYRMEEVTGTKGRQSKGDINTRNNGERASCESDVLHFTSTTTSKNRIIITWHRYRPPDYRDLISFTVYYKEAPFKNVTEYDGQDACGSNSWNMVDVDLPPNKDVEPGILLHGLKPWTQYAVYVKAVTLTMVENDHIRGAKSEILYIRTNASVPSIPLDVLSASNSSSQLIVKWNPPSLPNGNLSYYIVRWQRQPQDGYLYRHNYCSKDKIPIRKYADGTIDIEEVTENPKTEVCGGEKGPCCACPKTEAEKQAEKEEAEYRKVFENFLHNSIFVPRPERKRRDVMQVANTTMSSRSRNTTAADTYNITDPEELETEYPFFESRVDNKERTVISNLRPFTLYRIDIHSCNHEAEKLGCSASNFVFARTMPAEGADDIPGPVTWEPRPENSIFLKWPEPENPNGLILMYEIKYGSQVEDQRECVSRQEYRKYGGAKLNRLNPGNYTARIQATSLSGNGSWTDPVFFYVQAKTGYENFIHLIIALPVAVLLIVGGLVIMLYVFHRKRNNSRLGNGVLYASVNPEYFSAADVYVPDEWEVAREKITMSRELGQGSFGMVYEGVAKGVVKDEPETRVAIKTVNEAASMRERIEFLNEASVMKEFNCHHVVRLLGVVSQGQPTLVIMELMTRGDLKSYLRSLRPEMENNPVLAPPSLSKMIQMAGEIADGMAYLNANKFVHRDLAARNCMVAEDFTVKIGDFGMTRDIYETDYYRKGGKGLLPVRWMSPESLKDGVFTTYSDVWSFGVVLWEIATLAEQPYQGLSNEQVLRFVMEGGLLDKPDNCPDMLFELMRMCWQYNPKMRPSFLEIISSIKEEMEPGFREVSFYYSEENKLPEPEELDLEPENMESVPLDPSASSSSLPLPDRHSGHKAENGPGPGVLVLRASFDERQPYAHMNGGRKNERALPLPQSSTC
Sequence of human IGF-1 (human) (P05019 49-118): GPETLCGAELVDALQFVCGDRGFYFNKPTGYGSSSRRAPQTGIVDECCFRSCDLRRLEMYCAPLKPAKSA

Row | Substance | % Remaining Phosphorylation at 15 µg/mL (100 nM) Inhibitor; IGF-1 (20 ng/mL) induced IGF-1R phosphorylation (human IGF-1R (human)) [%] | % Remaining Phosphorylation at 15 µg/mL (100 nM) Inhibitor; IGF-2 (100 ng/mL) induced IGF-1R phosphorylation (human IGF-1R (human)) [%] | % Remaining Phosphorylation at 15 µg/mL (100 nM) Inhibitor; human serum (20%) induced IGF-1R phosphorylation (human IGF-1R (human)) [%] | IC50 of IGF-1 (20 ng/mL) induced IGF-1R phosphorylation, cell based ELISA (human IGF-1R (human)) [µg/mL] | IC50 of IGF-2 (100 ng/mL) induced IGF-1R phosphorylation, cell based ELISA (human IGF-1R (human)) [µg/mL] | IC50 of human serum (20%) induced IGF-1R phosphorylation, cell based ELISA (human IGF-1R (human)) [µg/mL] | % Remaining Phosphorylation at 15 µg/mL (100 nM) Inhibitor; IGF-1 (20 ng/mL) induced IGF-1R phosphorylation (human IGF-1 (human)) [%] | % Remaining Phosphorylation at 15 µg/mL (100 nM) Inhibitor; IGF-2 (100 ng/mL) induced IGF-1R phosphorylation (human IGF-2 (human)) [%] | % Remaining Phosphorylation at 15 µg/mL (100 nM) Inhibitor; IGF-2 (100 ng/mL) induced IR-A phosphorylation (human IGF-2 (human)) [%] | IC50 of IGF-2 (100 ng/mL) induced IGF-1R phosphorylation, cell based ELISA (human IGF-2 (human)) [µg/mL] | IC50 of IGF-2 (100 ng/mL) induced IR-A phosphorylation, cell based ELISA (human IGF-2 (human)) [µg/mL]
1 | IGF-1R antibody αIR-3 (Calbiochem, No. GR11L) | 35 | 76 | 120 | 1.16 | > 15 | > 15 |  |  |  |  | 
2 | Control IgG (antibody) |  |  |  |  |  |  | 108 | 108 | 109 | > 15 | > 15
